The values that follow come from patent US20100209945A1 (KOREA RESEARCH INSTITUTE OF BIOSCIENCE AND BIOTECHNOLOGY, published 2010).

Assay [1] concerns the target T1, rabbit originated IgG.
T1 construct: also called rabbit IgG; rabbit originated antibodies
Nature of the assay: SPR (Biacore 3000), hybrid of 1a on CM-5 chip, antibody at 100-1,000 nM, nonlinear regression with BIAevaluation. The protocol: (§1) The antibody solutions containing HIgG1, rabbit IgG, MIgG3 antibodies at the concentrations of 100 nM, 250 nM, 500 nM and 1,000 nM were spilled on the chip surface-treated with the hybrid of 1a of Example <3-1> at the speed of 10 μl/minute to induce the binding reaction and the degree of binding was measured by surface plasmon resonance (SPR) using Biacore 3000.
(§2) As a result, SPR sensor gram values represented in dotted line were obtained. The values were analyzed by nonlinear regression using BIAevaluation software equipped in Biacore 3000 to draw a theoretical line graph (FIG. 4a). From the theoretical graph, kinetic coefficients shown in FIG. 4b were obtained and the overlapping of each dotted line on the line indicates the calculation was correct.

For assay [2], the target named is T2, human originated HIgG1.
T2 construct: also called human IgG1 (anti CRP) antibody
The assay is described as above. The protocol: as §1, §2

Assay [3] deals with T1, rabbit originated IgG. Nature of the assay: SPR (Biacore 3000), hybrid of 1a on a CM-5 chip, antibody at 100 to 1000 nM, nonlinear regression with BIAevaluation. The protocol: as §1, §2
Assay [4] deals with T2, human originated HIgG1. Described as above. The protocol: as §1, §2
In the next assay the target is T3, BSA (UniProt P02769 25-607).
T3 construct: Control protein; also called BSA (control)
Nature of the assay: SPR (Biacore 3000), peptide hybrid coupled to a dextran CM-5 Au chip; legend: chip of formula 1, paragraph 80: hybrid of 1a. The protocol: Antibody solutions containing different animal originated antibodies of Example 2 or 5 μg/ml of BSA (control) in PBS were spilled on the chip of Example <3-1> at the speed of 10 μl/minute to bind the antibody to the peptide hybrid on the surface of the chip. The binding capacity was measured by surface plasmon resonance (SPR) using Biacore 3000.

Assay [5] concerns the target mouse originated antibody MIgG3. Nature of the assay: SPR (Biacore 3000), hybrid of 1a on a CM-5 chip, antibody at 100 to 1000 nM, nonlinear regression with BIAevaluation; Kon and Koff printed as NA. The protocol:
as §1, §2

T3 sequence (P02769 25-607 limits assumed): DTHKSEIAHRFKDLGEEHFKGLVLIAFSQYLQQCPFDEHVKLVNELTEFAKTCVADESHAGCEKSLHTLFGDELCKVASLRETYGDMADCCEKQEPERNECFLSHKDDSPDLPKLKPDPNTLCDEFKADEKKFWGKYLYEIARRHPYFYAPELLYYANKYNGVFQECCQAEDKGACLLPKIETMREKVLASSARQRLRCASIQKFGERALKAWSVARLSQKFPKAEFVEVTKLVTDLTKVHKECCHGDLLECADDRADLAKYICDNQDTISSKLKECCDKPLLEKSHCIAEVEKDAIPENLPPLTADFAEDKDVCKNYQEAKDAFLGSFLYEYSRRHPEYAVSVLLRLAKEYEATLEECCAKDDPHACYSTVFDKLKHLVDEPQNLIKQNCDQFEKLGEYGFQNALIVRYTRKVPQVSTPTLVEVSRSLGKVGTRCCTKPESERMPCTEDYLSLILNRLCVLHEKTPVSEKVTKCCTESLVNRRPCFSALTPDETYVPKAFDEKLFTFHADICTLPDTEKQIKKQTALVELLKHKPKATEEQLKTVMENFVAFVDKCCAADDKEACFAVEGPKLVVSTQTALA

B1: peptide hybrid for protein immobilization represented by formula 1a (H2N(CH2CH2O)2CH2CH2CO-EDDC*AWHLGELVWC*T-CONH2) (peptide)
peptide: EDDCAWHLGELVWCT
modifications: N-terminal H2N(CH2CH2O)2CH2CH2CO- (PEG linker); C-terminal amide (CONH2); disulfide bond between the two Cys (C*)
notes: Synthetic peptide-PEG hybrid; In the assays it was coupled through its terminal amine to a CM-5 chip, magnetic micro beads or a glass plate; also called hybrid of 1a; peptide hybrid of 1a
In the case of B1, the results for the dissociation constant (Kd) (in the assay with rabbit originated IgG [1]; with human originated HIgG1 [2]; in assay [5]) were 305 nM, 85 nM and above 20000 nM, respectively. In addition, the koff stood at 0.043 s⁻¹ with rabbit originated IgG [3] and 0.02 s⁻¹ with human originated HIgG1 [4]. The kon worked out at 140000 M⁻¹ s⁻¹ with rabbit originated IgG [3] and 230000 M⁻¹ s⁻¹ in the assay with human originated HIgG1 [4]. In addition, the binding result in the assay with BSA is reported as “no binding”.
